Experimental data reported in PMC8163358.

Target: gramicidin S synthetase A (GrsA) (UniProt P0C062)
Experiment: MST; 1 nM GrsA labelled with NT-647-NHS (RED-NHS kit), dilution series of TycB1(WT); NRPS buffer (50 mM HEPES, 100 mM NaCl, 10 mM MgCl2, 1 mM EDTA, pH 7.0) with 0.05% (v/v) Tween-20; triplicate; sigmoidal fit

UniProt P0C062, sequence (P0C062 whole entry): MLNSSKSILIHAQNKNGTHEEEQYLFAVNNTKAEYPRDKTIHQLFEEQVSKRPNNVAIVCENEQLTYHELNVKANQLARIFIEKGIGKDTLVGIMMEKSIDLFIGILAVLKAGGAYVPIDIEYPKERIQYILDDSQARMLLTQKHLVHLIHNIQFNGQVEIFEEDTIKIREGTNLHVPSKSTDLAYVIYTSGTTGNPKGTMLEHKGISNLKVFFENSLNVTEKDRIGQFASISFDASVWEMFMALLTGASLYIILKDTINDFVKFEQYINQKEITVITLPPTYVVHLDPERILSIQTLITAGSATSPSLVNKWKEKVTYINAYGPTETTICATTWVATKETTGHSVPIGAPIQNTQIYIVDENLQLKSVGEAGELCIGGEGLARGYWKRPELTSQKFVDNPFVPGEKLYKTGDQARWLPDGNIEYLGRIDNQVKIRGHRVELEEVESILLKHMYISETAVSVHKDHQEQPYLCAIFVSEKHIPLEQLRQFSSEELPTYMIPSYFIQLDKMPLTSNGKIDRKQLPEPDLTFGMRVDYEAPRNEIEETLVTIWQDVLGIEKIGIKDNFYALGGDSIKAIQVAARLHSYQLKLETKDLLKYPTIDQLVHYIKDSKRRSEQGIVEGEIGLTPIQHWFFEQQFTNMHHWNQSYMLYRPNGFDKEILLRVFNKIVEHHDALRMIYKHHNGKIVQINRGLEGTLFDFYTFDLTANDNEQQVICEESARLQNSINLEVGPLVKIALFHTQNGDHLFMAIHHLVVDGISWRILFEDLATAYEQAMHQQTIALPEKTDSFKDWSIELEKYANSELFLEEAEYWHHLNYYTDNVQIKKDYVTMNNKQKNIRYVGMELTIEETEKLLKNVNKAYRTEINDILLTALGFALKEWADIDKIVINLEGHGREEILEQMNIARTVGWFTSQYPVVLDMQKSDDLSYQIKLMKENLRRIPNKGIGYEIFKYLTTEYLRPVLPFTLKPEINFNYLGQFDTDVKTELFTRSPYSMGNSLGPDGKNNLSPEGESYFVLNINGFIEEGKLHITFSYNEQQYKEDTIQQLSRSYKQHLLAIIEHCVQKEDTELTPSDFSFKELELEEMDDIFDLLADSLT

Kd: 5 µM
Substance: TycB1 (wildtype) (from UniProt O30408 1-3587) (domain or fragment)
